In publication PMC9440474 (2022):
Bridge positions count the residues as written; N and C are the ends. Ends that are not written are not given here. APBA‑3 = not defined here

Legend:
S1_SS* = target: T1, S1_SS* (disulfide 2-9 (inferred)); assay: fluorescence polarization
T1 chain: ACLIPSWGCGGG-{Dap(FAM)}

S1_APBA-3* = target: T2, S1_APBA-3* (linker (positions not given here) via APBA‑3; reading uncertain); assay: fluorescence polarization
T2 chain: ACLIPSWGCGGG-{Dap(FAM)}

S1_SS = target: T3, S1_SS (disulfide 2-9 (inferred)); assay: fluorescence polarization competition
T3 chain: ACLIPSWGCGGG

B1: Sortase A (protein)
chain: MKKWTNRLMTIAGVVLILVAAYLFAKPHIDNYLHDKDKDEKIEQYDKNVKEQASKDKKQQAKPQIPKDKSKVAGYIEIPDADIKEPVYPGPATPEQLNRGVSFAEENESLDDQNISIAGHTFIDRPNYQFTNLKAAKKGSMVYFKVGNETRKYKMTSIRDVKPTDVGVLDEQKGKDKQLTLITCDDYNEKTGVWEKRKIFVATEVK
S1_SS*
  Kd: 5.2 µM
S1_APBA-3*
  Kd: 64 µM
S1_SS
  IC50: 26 µM
